Assay results taken from patent US20130177572A1.

How the values were obtained:
[1] = target: human PDGFR-hIgG1-Fc chimeric fusion protein (human) (UniProt P09619); assay: SPR (Biacore T100), PDGFR-Fc captured by anti-hIgG1 Fc, 1:1 model
[2] = target: human PDGFRβ (human) (UniProt P09619); assay: solution equilibrium binding: 35S-Met labelled in vitro translated protein, human PDGFRβ titrated (0 to 20 nM), capture on protein A beads, scintillation counts
human PDGFRβ (human), sequence (P09619 33-530 limits assumed): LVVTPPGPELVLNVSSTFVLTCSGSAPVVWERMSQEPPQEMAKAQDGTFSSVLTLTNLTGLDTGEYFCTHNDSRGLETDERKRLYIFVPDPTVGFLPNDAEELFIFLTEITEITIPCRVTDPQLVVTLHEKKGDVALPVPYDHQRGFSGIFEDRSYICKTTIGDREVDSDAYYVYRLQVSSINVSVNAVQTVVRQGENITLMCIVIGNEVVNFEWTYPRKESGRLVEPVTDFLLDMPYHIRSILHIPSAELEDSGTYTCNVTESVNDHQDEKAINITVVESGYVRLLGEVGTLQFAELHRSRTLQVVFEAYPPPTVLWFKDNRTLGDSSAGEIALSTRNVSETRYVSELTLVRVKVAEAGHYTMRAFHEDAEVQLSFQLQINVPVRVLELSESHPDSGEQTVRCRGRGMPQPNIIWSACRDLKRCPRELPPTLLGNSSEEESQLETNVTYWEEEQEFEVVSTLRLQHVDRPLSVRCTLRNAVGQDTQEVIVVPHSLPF

human PDGFR-hIgG1-Fc chimeric fusion protein (human), sequence (P09619 33-530 limits assumed, stated change not applied): as the sequence (P09619 33-530 limits assumed) above

Kd [1]: 2.18 nM | koff [1]: 0.00154 s⁻¹ | kon [1]: 706000 M⁻¹ s⁻¹ | Kd [2]: 0.03 nM
B1: XB2202/A4 scFv (scFv, part only; not given: Linker, domain order and tag, V domains shown, not shown: another chain or arm of the molecule; small tags and cut ends)
VH: QVQLVQSGAEVKKPGSSVRVSCKASGGTFSRHAISWVRQAPGQGLEWIGGILPILKTPNYAQRFQGRVTINADESTSTVYMEMSSLRSEDTAVYYCATHGGDRSYWGQGTLVTVSS
VL: DVVMTQSPSSLSASVGDRVTITCQASQDISNWLNWYQQKPGKAPKLLIYEASNLETGVPSRFSGSGSGTDFTFTISSLQPEDIATYYCQQYNNVLRTFGQGTKVEIK
